This passage reports Km results from article PMC2814896.

As usually defined, the Km is the concentration of substrate that gives half-maximal velocity.

Substrate in data set [1]: N=C(N)NCCCCN
As to the kind of experiment: saturable uptake in hOCT1-HEK cells. It counts as cell-based, Homo sapiens.

Substrate in data set [2]: N=C(N)NCCCCN
Nature of the data set: radiolabeled uptake in hOCT2-HEK293 vs wild-type HEK293 cells. Format: cell-based, Homo sapiens.

B1: OCT1 (hOCT1) (Homo sapiens) (protein)
chain: MPTVDDILEQVGESGWFQKQAFLILCLLSAAFAPICVGIVFLGFTPDHHCQSPGVAELSQRCGWSPAEELNYTVPGLGPAGEAFLGQCRRYEVDWNQSALSCVDPLASLATNRSHLPLGPCQDGWVYDTPGSSIVTEFNLVCADSWKLDLFQSCLNAGFLFGSLGVGYFADRFGRKLCLLGTVLVNAVSGVLMAFSPNYMSMLLFRLLQGLVSKGNWMAGYTLITEFVGSGSRRTVAIMYQMAFTVGLVALTGLAYALPHWRWLQLAVSLPTFLFLLYYWCVPESPRWLLSQKRNTEAIKIMDHIAQKNGKLPPADLKMLSLEEDVTEKLSPSFADLFRTPRLRKRTFILMYLWFTDSVLYQGLILHMGATSGNLYLDFLYSALVEIPGAFIALITIDRVGRIYPMAMSNLLAGAACLVMIFISPDLHWLNIIIMCVGRMGITIAIQMICLVNAELYPTFVRNLGVMVCSSLCDIGGIITPFIVFRLREVWQALPLILFAVLGLLAAGVTLLLPETKGVALPETMKDAENLGRKAKPKENTIYLKVQTSEPSGT
Consider B1, for which the Km in data set [1] was 30 mM.

B2: OCT2 (hOCT2) (Homo sapiens) (protein)
chain: MPTTVDDVLEHGGEFHFFQKQMFFLLALLSATFAPIYVGIVFLGFTPDHRCRSPGVAELSLRCGWSPAEELNYTVPGPGPAGEASPRQCRRYEVDWNQSTFDCVDPLASLDTNRSRLPLGPCRDGWVYETPGSSIVTEFNLVCANSWMLDLFQSSVNVGFFIGSMSIGYIADRFGRKLCLLTTVLINAAAGVLMAISPTYTWMLIFRLIQGLVSKAGWLIGYILITEFVGRRYRRTVGIFYQVAYTVGLLVLAGVAYALPHWRWLQFTVSLPNFFFLLYYWCIPESPRWLISQNKNAEAMRIIKHIAKKNGKSLPASLQRLRLEEETGKKLNPSFLDLVRTPQIRKHTMILMYNWFTSSVLYQGLIMHMGLAGDNIYLDFFYSALVEFPAAFMIILTIDRIGRRYPWAASNMVAGAACLASVFIPGDLQWLKIIISCLGRMGITMAYEIVCLVNAELYPTFIRNLGVHICSSMCDIGGIITPFLVYRLTNIWLELPLMVFGVLGLVAGGLVLLLPETKGKALPETIEEAENMQRPRKNKEKMIYLQVQKLDIPLN
For B2, the Km in data set [2] was 2 mM.
